Data published in patent publication US20210170043A1, “DC-SIGN ANTIBODY CONJUGATES COMPRISING STING AGONISTS” (NOVARTIS AG, priority 2018, published 2021).

Columns and labels:
[1] = tested on: CD11c+ dendritic cells of Tg+ mice; assay: Dendritic cell activation in DC-SIGN Tg+ mice (spleen, flow cytometry); assay type: in vivo, mouse
Method: Spleens were harvested 24 hours post dose and analyzed by flow cytometry to look at CD11c+ dendritic cells.

[2] = tested on: M2 macrophages; assay: Activation of human M2 macrophages (M2 moMacs) in vitro, flow cytometry; assay type: cell-based; details: 24 hours incubation
Method: Primary human monocytes were isolated from a leukapheresis using magnetic bead selection and frozen for storage in liquid nitrogen. For monocyte DC (moDC) differentiation, cells were thawed and incubated in media containing GM-CSF and IL-4 for 7 days. For M2 macrophages (M2 moMacs), cells were thawed and incubated for 6 days with M-CSF containing media and then polarized with the addition of IL-4 for 24 hours. After the differentiation process for both moDC and moMacs, media was washed off and replaced with fresh media containing isotype control (DAPA version of Trastuzumab) C1, or DC-SIGN antibody C1 conjugates. Free T1-1 compound was used as a control. 24 hours after incubation with indicated compounds, cells were evaluated by flow cytometry for activation.
Peripheral blood Leukopaks from normal human donors were obtained from HemaCare. […]
Human CD14+ monocytes were isolated and frozen as described. […] Cells were counted and plated at 40,000-80,000 cells per well in a 384 well flat bottom tissue culture plate (Greiner). […]
24 hours after activation with compounds, cells were evaluated by flow cytometry according to the described protocol using antibody clones described in flow cytometry protocol section. DC-SIGN+CD11c+ HLA-DR+ cells were identified and assessed for CD86 expression and levels of DC-SIGN.

[3] = tested on: transgenic mice expressing human DC-SIGN gene (Tg+); assay: Plasma cytokine and chemokine levels in human DC-SIGN transgenic mice; assay type: in vivo, mouse; details: 6 hours post dose
Method: Blood was collected at 6 hours post dose to analyze plasma cytokine and chemokine levels and spleens were analyzed at 24 hours post dose to look at dendritic cell activation.
Mice were bled 6 hours after dosing to collect plasma for analysis of circulating cytokine levels.
Plasma was collected at indicated timepoints and analyzed with a Mouse IP-10 Platinum ELISA kit (eBioscience Affymetrix). Plasma was diluted 1:100 and the protocol was followed according to the manufacturer's recommendations. Data was collected using an Enspire spectro-photometer using […] as the primary wavelength.
Plasma was collected at indicated timepoints and analyzed with a Mouse IFN-beta ELISA kit (R&D Systems) according to the manufacturer's recommendations. Data was collected using an Enspire spectro-photometer using […] as the primary wavelength.
Plasma was collected at indicated timepoints and analyzed with a mouse Proinflammatory Panel 1 (mouse) Kit V-PLEX™ 10 plex from MesoScale Discovery. 25 μL of plasma per sample was used and protocol was followed according to the manufacturer's recommendations. Data were collected and analyzed using a Sector Imager 6000.
Human DC-SIGN transgenic mice (Tg+) (Schaefer et al., J. Immunol. (2008) 180 (10) 6836-6845) were bred to Signr1 deficient mice (−/− or KO) (Orr et al., Glycobiology (2013) 23(3): 363-380). Human DC-SIGN expression was checked using PCR to genotype the mice. Human DC-SIGN Tg+ Signr1−/− mice or human DC-SIGN Tg− Signr1−/− mice were tested with compounds as indicated in the above examples.

B1: 2B2 (DAPA) C1 (conjugate)
heavy: QVQLVQSGAEVKKPGASVKVSCKASGYTFTNYGINWVRQAPGQRLEWMGYIYIGNDYTEYNERFKGRVTITSDTSASTAYMELSSLRSEDTAVYYCARLYYGSSLYSYAMDYWGQGTTVTVSSASTKGPSVFPLAPSSKSTSGGTAALGCLVKDYFPCPVTVSWNSGALTSGVHTFPAVLQSSGLYSLSSVVTVPSSSLGTQTYICNVNHKPSNTKVDKRVEPKSCDKTHTCPPCPAPELLGGPSVFLFPPKPKDTLMISRTPEVTCVVVAVSHEDPEVKFNWYVDGVEVHNAKTKPREEQYNSTYRVVSVLTVLHQDWLNGKEYKCKVSNKALAAPIEKTISKAKGQPREPQVYTLPPSREEMTKNQVSLTCLVKGFYPCDIAVEWESNGQPENNYKTTPPVLDSDGSFFLYSKLTVDKSRWQQGNVFSCSVMHEALHNHYTQKSLSLSPGK
light: DIVMTQSPLSLPVTPGEPASISCRSSKSLLHSSGNTYLYWFLQKPGQSPQLLISRMSNLASGVPDRFSGSGSGTDFTLKISRVEAEDVGVYYCMQHLEYPYTFGGGTKVEIKRTVAAPSVFIFPPSDEQLKSGTASVVCLLNNFYPREAKVQWKVDNALQSGNSQESVTEQDSKDSTYSLSSTLTLSKADYEKHKVYACEVTHQGLSSPVTKSFNRGEC
CD80 upregulation on dendritic cells (DC activation) [1]: significantly upregulated
CD86 upregulation on dendritic cells (DC activation) [1]: significantly upregulated
downregulation of DC-SIGN on macrophages [2]: induced downregulation of DC-SIGN
macrophage activation as measured by CD86 upregulation [2]: induced monocyte dendritic cell and macrophage activation
plasma IL-12p70 ([3]; 1 mg/kg i.v. (Fab2 1.33 mg/kg)): increased
plasma IP-10 ([3]; 1 mg/kg i.v. (Fab2 1.33 mg/kg, Fab 1.3 mg/kg)): increased
plasma TNFα ([3]; 1 mg/kg i.v.): increased
